The values that follow come from patent publication US20130131319A1 (Chugai, published 2013).

Assay [1] addresses T1, soluble human FcRn (complex of FcRn and beta2-microglobulin) (human, UniProt P55899 24-297; P61769 21-119).
T1 construct: Secreted from HEK293H
Kind of assay: Biacore steady-state, antibody immobilized, pH 6.0, 25C. (In general: Surface plasmon resonance follows binding to a sensor surface in real time, without labels.)
Description: The antibodies were tested as a test substance after direct immobilization onto Series S Sensor Chip CM5. Using an amino-coupling kit according to the supplier's instruction manual, the antibodies were immobilized onto Sensor Chip so as to secure an immobilization amount of 500 RU. The running buffer used was 50 mmol/l Na-phosphate/150 mmol/l NaCl containing 0.05% (v/v %) Surfactant P20 (pH 6.0).
With the prepared sensor chips, assay was carried out using as a running buffer, 50 mmol/l Na-phosphate/150 mmol/l NaCl containing 0.05% Surfactant P20 (pH 6.0) or 50 mmol/l Na-phosphate/150 mmol/l NaCl containing 0.05% Surfactant P20 (pH 7.4). Assays were carried out exclusively at 25 degrees C. The diluted human FcRn solutions and running buffer as a reference solution were injected at a flow rate of 5 microliter/min for ten minutes to allow for human FcRn to interact with the antibody on the chip. Next, the running buffer was injected at a flow rate of 5 microliter/min for one minute to monitor the dissociation of FcRn. […]
The assay results were analyzed using Biacore T100 Evaluation Software (Ver. 2.0.1). By a steady-state affinity method, the dissociation constant (KD) was calculated from the assay results at six different FcRn concentrations.

The target in assay [2] is T2, soluble human plexin A1 (hsPlexin A1) (human, UniProt Q9UIW2 27-1243).
T2 construct: range 27-1243
Kind of assay: Biacore, antibody on protein A/G, hsPlexin A1 analyte, 37C, pH 6.0.
Description: (§1) Assay was carried out using 10 mmol/l ACES/150 mmol/l NaCl containing 0.05% Surfactant P20 (pH 7.4 and pH 6.0) as a running buffer. […] Assays were carried out at 37 degrees C. The assay results were analyzed using Biacore T100 Evaluation Software (GE Healthcare), and the association rate constant, ka (1/Ms), and the dissociation rate constant, kd (1/s), were calculated from the assay results. Then the KD (M) was calculated from ka and kd (Table 15). Furthermore, the pH-dependent binding was evaluated to calculate the KD ratio between pH 7.4 and pH 6.0 for each antibody.

Assay [3] addresses T2, soluble human plexin A1 (hsPlexin A1). Kind of assay: Biacore, antibody on protein A/G, hsPlexin A1 analyte, 37C, pH 7.4.
Description: as §1
Assay [4] addresses T3, human IL-6 (TORAY) (human, UniProt P05231 30-212, limits assumed).
T3 construct: also called hIL-6
Kind of assay: Biacore, antibody on protein A/G, IL-6 analyte, 37C, pH 5.5.
Description: (§2) Assay was carried out using 10 mmol/l ACES/150 mmol/l NaCl containing 0.05% Surfactant P20 (pH 7.4 and pH 6.0) as a running buffer. After antibodies were bound to recombinant proteinA/G (Thermo Scientific) immobilized on sensor chips using an amino-coupling method, appropriate concentrations of human IL-6 (TORAY) as an analyte were injected. Assays were carried out at 37 degrees C. The assay results were analyzed using Biacore T100 Evaluation Software (GE Healthcare), and the association rate constant, ka (1/Ms), and the dissociation rate constant, kd (1/s), were calculated from the assay results. […] Furthermore, the pH-dependent binding was evaluated to calculate the KD ratio between pH 7.4 and pH 6.0 for each antibody.

The target in assay [5] is T3, human IL-6 (TORAY). Kind of assay: Biacore, antibody on protein A/G, IL-6 analyte, 37C, pH 7.4.
Description: as §2
Assay [6] has as its target T1, soluble human FcRn (complex of FcRn and …). Kind of assay: Biacore pH 7.0.
Description: (§3) The binding between antibody and human FcRn was kinetically analyzed using Biacore T100 (GE Healthcare). […] An appropriate amount of protein L (ACTIGEN) was immobilized onto Sensor chip CM4 (GE Healthcare) by the amino coupling method, and the chip was allowed to capture an antibody of interest. Then, diluted FcRn solutions and running buffer (as a reference solution) were injected to allow human FcRn to interact with the antibody captured on the sensor chip. The running buffer used comprised 50 mmol/l sodium phosphate, 150 mmol/l NaCl, and 0.05% (w/v) Tween20 (pH 7.0). FcRn was diluted using each buffer. The chip was regenerated using 10 mmol/l glycine-HCl (pH 1.5). Assays were carried out exclusively at 25 degrees C. The association rate constant ka (1/Ms) and dissociation rate constant kd (1/s), both of which are kinetic parameters, were calculated based on the sensorgrams obtained in the assays, and KD (M) of each antibody for human FcRn was determined from these values. Each parameter was calculated using Biacore T100 Evaluation Software (GE Healthcare).
The target is the same in assay [7]. Kind of assay: Biacore pH 7.0. This is another data set of the same source.
Description: as §3
Assay [8] has the same target. Kind of assay: Biacore pH 7.0. This is another data set of the same source.
Description: as §3

T1 sequence (P55899 24-297 limits assumed, chain 1 of 2): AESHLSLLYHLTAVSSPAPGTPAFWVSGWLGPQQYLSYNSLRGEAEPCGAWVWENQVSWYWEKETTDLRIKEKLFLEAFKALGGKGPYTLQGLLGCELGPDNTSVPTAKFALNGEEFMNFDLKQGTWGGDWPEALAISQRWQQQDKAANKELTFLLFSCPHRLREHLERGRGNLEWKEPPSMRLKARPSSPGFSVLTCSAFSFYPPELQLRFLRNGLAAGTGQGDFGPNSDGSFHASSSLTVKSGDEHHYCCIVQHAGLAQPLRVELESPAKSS
T1 sequence (P61769 21-119 limits assumed, chain 2 of 2): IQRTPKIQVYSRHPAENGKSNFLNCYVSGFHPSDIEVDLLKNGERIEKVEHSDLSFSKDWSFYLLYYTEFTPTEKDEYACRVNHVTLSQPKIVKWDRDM
T2 sequence (Q9UIW2 other isoform, or with tags, fused parts or gaps limits assumed): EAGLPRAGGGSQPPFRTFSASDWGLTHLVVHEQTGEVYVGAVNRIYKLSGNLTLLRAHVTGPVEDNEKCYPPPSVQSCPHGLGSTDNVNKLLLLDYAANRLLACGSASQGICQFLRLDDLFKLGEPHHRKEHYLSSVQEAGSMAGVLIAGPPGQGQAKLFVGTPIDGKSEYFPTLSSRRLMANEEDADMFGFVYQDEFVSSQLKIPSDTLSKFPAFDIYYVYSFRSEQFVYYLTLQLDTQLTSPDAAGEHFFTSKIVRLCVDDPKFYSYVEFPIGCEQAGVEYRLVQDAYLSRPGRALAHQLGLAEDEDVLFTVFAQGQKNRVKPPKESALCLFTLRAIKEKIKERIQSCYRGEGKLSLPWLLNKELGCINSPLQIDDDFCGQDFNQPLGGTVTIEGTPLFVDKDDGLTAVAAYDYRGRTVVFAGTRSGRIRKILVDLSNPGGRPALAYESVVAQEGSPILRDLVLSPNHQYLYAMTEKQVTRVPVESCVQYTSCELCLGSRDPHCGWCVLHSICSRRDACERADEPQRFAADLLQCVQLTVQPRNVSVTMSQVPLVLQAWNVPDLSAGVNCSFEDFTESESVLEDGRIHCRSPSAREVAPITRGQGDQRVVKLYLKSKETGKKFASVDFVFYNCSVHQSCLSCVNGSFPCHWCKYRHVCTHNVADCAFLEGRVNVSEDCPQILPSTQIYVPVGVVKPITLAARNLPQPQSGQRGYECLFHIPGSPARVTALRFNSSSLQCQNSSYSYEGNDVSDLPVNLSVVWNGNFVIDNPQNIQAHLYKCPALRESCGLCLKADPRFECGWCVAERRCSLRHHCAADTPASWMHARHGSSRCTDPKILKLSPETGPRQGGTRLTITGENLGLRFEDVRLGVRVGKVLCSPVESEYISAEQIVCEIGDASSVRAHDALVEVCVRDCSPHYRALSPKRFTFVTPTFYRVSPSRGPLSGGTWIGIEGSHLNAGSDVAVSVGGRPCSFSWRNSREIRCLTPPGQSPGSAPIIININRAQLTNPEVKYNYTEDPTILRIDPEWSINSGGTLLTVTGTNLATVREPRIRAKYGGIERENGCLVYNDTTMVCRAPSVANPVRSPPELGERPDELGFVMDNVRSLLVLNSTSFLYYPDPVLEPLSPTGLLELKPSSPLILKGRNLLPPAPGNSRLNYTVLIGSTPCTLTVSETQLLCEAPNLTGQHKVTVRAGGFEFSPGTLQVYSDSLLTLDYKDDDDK

B1: Fv4-IgG1 (antibody)
heavy: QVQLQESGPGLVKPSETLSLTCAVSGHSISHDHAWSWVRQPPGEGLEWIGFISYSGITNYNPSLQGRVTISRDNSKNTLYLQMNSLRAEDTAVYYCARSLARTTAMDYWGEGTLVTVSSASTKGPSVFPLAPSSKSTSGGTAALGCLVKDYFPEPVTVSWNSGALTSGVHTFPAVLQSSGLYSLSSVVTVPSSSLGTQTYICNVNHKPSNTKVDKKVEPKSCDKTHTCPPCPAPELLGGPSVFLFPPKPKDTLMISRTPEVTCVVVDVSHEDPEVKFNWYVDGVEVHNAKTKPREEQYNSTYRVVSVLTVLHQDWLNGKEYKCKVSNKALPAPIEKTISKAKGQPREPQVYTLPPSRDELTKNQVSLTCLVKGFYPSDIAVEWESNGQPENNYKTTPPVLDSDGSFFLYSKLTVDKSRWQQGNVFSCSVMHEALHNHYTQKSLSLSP
light: DIQMTQSPSSLSASVGDSVTITCQASTDISSHLNWYQQKPGKAPELLIYYGSHLLSGVPSRFSGSGSGTDFTFTISSLEAEDAATYYCGQGNRLPYTFGQGTKVEIERTVAAPSVFIFPPSDEQLKSGTASVVCLLNNFYPREAKVQWKVDNALQSGNSQESVTEQDSKDSTYSLSSTLTLSKADYEKHKVYACEVTHQGLSSPVTKSFNRGEC
notes: VH3-IgG1 and VL3-CK; copies: 2 + 2
What is called Kd is the equilibrium constant for the complex coming apart. High values mean weaker binding, low ones tighter binding. Take B1: binding in assay [1] was put at a Kd of 1990 nM.

B2: PX268-IgG1 (antibody, V domains shown)
VH: QSLEESGGDLVKPGASLTLTCTASGFSFSSNYWIYWVRQAPGKGLEWIACIYIGSDSAYYASWAKGRFTISKTSSTTVTLQMTSLTAADTATYFCARWDNSGRALKLWGPGTLVTVSS
VL: QMLTQTASPVSAAVGGTVTIKCQSSQSVADNNHLSWYQQKPGQPPKLLIYFASTLASGVSSRFKGSGSGTQFTLTISDVQCDDAATYYCLGNYDCGSADCHAFGGGTEVVVKR
notes: chimeric anti-plexin A1 antibody
As a reminder, the koff is the rate constant with which the complex falls apart. A higher koff goes with fast dissociation. In general, kon refers to the rate constant with which the complex forms. In assay [2], B2 gave a Kd of 4.4 nM, a koff of 0.00027 s⁻¹ and a kon of 63000 M⁻¹ s⁻¹. In assay [3], the equilibrium dissociation constant (Kd) turned out to be 5.4 nM, the off-rate constant (koff) came to 0.00028 s⁻¹ and the kon stood at 52000 M⁻¹ s⁻¹.

B3: PX141-IgG1 (antibody, V domains shown)
VH: QEQLEESGGGLVKPEGSLTLTCKASGFDFSSYYYMCWVRQAPGKGLEWIGCIVTGSYGRSWYASWAKGRFTITRSTSLNTVTLQLNSLTAADTATYFCARDPFVIASSHYQNLWGPGTLVTVSS
VL: ALVMTQTPSPVSAAVGGTVTISCQSSPNIYNNYLSWYQQKPGQPPKLLIYRASNLETGVPSRFSGSGSGTQFTLTISDVQCDDAATYYCAGYKSYDNDDNAFGGGTEVVVKR
notes: chimeric anti-plexin A1 antibody, pH-dependent
In the case of B3, in assay [2], binding was put at a Kd of 63 nM, the koff amounted to 0.0049 s⁻¹ and the kon was determined as 79000 M⁻¹ s⁻¹. In assay [3], the Kd turned out to be 4.2 nM, the koff is 0.00064 s⁻¹ and the kon amounted to 150000 M⁻¹ s⁻¹.

B4: CLB8-IgG1 (antibody, V domains shown)
VH: EVQLVESGGKLLKPGGSLKLSCAASGFTFSSFAMSWFRQSPEKRLEWVAEISSGGSYTYYPDTVTGRFTISRDNAKNTLYLEMSSLRSEDTAMYYCARGLWGYYALDYWGQGTSVTVSS
VL: QIVLIQSPAIMSASPGEKVTMTCSASSSVSYMYWYQQKPGSSPRLLIYDTSNLASGVPVRFSGSGSGTSYSLTISRMEAEDAATYYCQQWSGYPYTFGGGTKLEIKR
notes: chimeric anti-IL-6 antibody
Take B4: in the assay with human IL-6 (TORAY) [4], binding was characterised by a dissociation constant (Kd) of 0.18 nM, the off-rate (koff) was 0.00066 s⁻¹ and the kon is 3.7e+06 M⁻¹ s⁻¹. Moreover, in the assay with human IL-6 (TORAY) [5], the dissociation constant Kd was determined as 0.22 nM, the koff was found to be 0.0008 s⁻¹ and the kon amounted to 3.6e+06 M⁻¹ s⁻¹.

B5: H16/L13-IgG1 (antibody, V domains shown)
VH: EVQLVESGGKLLKPGGSLKLSCAASGFTFSSHAMSWFRQSPEKRLEWVAEISSGGSYTYHPHTVTGRFTISRDNAKNTLYLEMSSLRSEDTAMYYCARGLWGHYALDYWGQGTSVTVSS
VL: QIVLIQSPAIMSASPGEKVTMTCSASSSVSYMYWYQQKPGSSPRLLIYDTSHHASGVPVRFSGSGSGTSYSLTISRMEAEDAATYYCHQWSGHPYTFGGGTKLEIKR
notes: chimeric anti-IL-6 antibody, pH-dependent
In the case of B5, in the assay with human IL-6 (TORAY) [4], binding was characterised by a dissociation constant (Kd) of 16 nM, the koff was determined as 0.0059 s⁻¹ and the kon amounted to 370000 M⁻¹ s⁻¹. For the same molecule, in the assay with human IL-6 (TORAY) [5], the Kd is 2.2 nM, the koff amounted to 0.0046 s⁻¹ and the association rate constant (kon) is 2.1e+06 M⁻¹ s⁻¹.

B6: IgG1-F162 (antibody)
heavy: QVQLQESGPGLVKPSETLSLTCAVSGHSISHDHAWSWVRQPPGEGLEWIGFISYSGITNYNPSLQGRVTISRDNSKNTLYLQMNSLRAEDTAVYYCARSLARTTAMDYWGEGTLVTVSSASTKGPSVFPLAPSSKSTSGGTAALGCLVKDYFPEPVTVSWNSGALTSGVHTFPAVLQSSGLYSLSSVVTVPSSSLGTQTYICNVNHKPSNTKVDKKVEPKSCDKTHTCPPCPAPELLGGPSVFLFPPKPKDTLWISRTPEVTCVVVDVSHEDPEVKFNWYVDGVEVHNAKTKPREEQYNSTYRVVSVLTVLHQDWLNGKEYKCKVSNKALPAPIEKTISKAKGQPREPQVYTLPPSRDELTKNQVSLTCLVKGFYPSDIAVEWESNGQPENNYKTTPPVLDSDGSFFLYSKLTVDKSRWQQGNVFSCSVYHEALHYHYTQKSLSLSP
light: not shown
notes: copies: 2 + 2
On to B6, for which the affinity in assay [6], expressed as Kd, was 170 nM.

B7: IgG1-F376 (antibody)
heavy: QVQLQESGPGLVKPSETLSLTCAVSGHSISHDHAWSWVRQPPGEGLEWIGFISYSGITNYNPSLQGRVTISRDNSKNTLYLQMNSLRAEDTAVYYCARSLARTTAMDYWGEGTLVTVSSASTKGPSVFPLAPSSKSTSGGTAALGCLVKDYFPEPVTVSWNSGALTSGVHTFPAVLQSSGLYSLSSVVTVPSSSLGTQTYICNVNHKPSNTKVDKKVEPKSCDKTHTCPPCPAPELLGGPKVFLFPPKPKDTLYISREPEVTCVVVDVSHEFPEVKFNWYVDGVEVHEAKTKPREEQYNSTYRVVSVLTPLHQDWLNGKEYKCKVSNKALPAPIEKTISKAKGQPREPQVYTLPPSRDELTKNQVSLTCLVKGFYPSDIAVEWESNGQPENNYKTTPPVLDSDGSFFLYSKLTVDKSRWQQGNVFSCSVMHEALHYHYTQKSLSLSP
light: not shown
notes: copies: 2 + 2
Take B7: in assay [7], the Kd came to 9.5 nM.

B8: IgG1-F308 (antibody)
heavy: QVQLQESGPGLVKPSETLSLTCAVSGHSISHDHAWSWVRQPPGEGLEWIGFISYSGITNYNPSLQGRVTISRDNSKNTLYLQMNSLRAEDTAVYYCARSLARTTAMDYWGEGTLVTVSSASTKGPSVFPLAPSSKSTSGGTAALGCLVKDYFPEPVTVSWNSGALTSGVHTFPAVLQSSGLYSLSSVVTVPSSSLGTQTYICNVNHKPSNTKVDKKVEPKSCDKTHTCPPCPAPELLGGPKVFLFPPKPKDTLWISRTPEVTCVVVDVSHEDPEVKFNWYVDGVEVHNAKTKPREEQYNSTYRVVSVLTPLHQDWLNGKEYKCKVSNKALPAPIEKTISKAKGQPREPQVYTLPPSRDELTKNQVSLTCLVKGFYPSDIAVEWASNGQPENNYKTTPPVLDSDGSFFLYSKLTVDKSRWQQGNVFSCSVYHEALHYHYTQKSLSLSP
light: not shown
notes: copies: 2 + 2
As for B8, binding in assay [8] was put at a Kd of 18 nM.

B9: IgG1-F311 (antibody)
heavy: QVQLQESGPGLVKPSETLSLTCAVSGHSISHDHAWSWVRQPPGEGLEWIGFISYSGITNYNPSLQGRVTISRDNSKNTLYLQMNSLRAEDTAVYYCARSLARTTAMDYWGEGTLVTVSSASTKGPSVFPLAPSSKSTSGGTAALGCLVKDYFPEPVTVSWNSGALTSGVHTFPAVLQSSGLYSLSSVVTVPSSSLGTQTYICNVNHKPSNTKVDKKVEPKSCDKTHTCPPCPAPELLGGPKVFLFPPKPKDTLWISRTPEVTCVVVDVSHEDPEVKFNWYVDGVEVHNAKTKPREEQYNSTYRVVSVLTPLHQDWLNGKEYKCKVSNKALPAPIEKTISKAKGQPREPQVYTLPPSRDELTKNQVSLTCLVKGFYPSDIAVEWESNGQPENNYKTTPPVLDSDGSFFLYSKLTVDKSRWQQGNVFSCSVFHEALHYHYTQKSLSLSP
light: not shown
notes: copies: 2 + 2
In assay [8], B9 came in with a Kd of 29 nM.

B10: IgG1-F379 (antibody)
heavy: QVQLQESGPGLVKPSETLSLTCAVSGHSISHDHAWSWVRQPPGEGLEWIGFISYSGITNYNPSLQGRVTISRDNSKNTLYLQMNSLRAEDTAVYYCARSLARTTAMDYWGEGTLVTVSSASTKGPSVFPLAPSSKSTSGGTAALGCLVKDYFPEPVTVSWNSGALTSGVHTFPAVLQSSGLYSLSSVVTVPSSSLGTQTYICNVNHKPSNTKVDKKVEPKSCDKTHTCPPCPAPELLGGPKVFLFPPKPKDTLWISREPEVTCVVVDVSHEDPEVKFNWYVDGVEVHNAKTKPREEQYNSTYRVVSVLTPLHADWLNGKEYKCKVSNKALPAPIEKTISKAKGQPREPQVYTLPPSRDELTKNQVSLTCLVKGFYPSDIAVEWESNGQPENNYKTTPPVLDSDGSFFLYSKLTVDKSRWQQGNVFSCSVYHEALHYHYTQKSLSLSP
light: not shown
notes: copies: 2 + 2
Molecule B10 displayed a Kd in assay [7] of 10 nM. This counts as double-digit nanomolar.

B11: IgG1-F403 (antibody)
heavy: QVQLQESGPGLVKPSETLSLTCAVSGHSISHDHAWSWVRQPPGEGLEWIGFISYSGITNYNPSLQGRVTISRDNSKNTLYLQMNSLRAEDTAVYYCARSLARTTAMDYWGEGTLVTVSSASTKGPSVFPLAPSSKSTSGGTAALGCLVKDYFPEPVTVSWNSGALTSGVHTFPAVLQSSGLYSLSSVVTVPSSSLGTQTYICNVNHKPSNTKVDKKVEPKSCDKTHTCPPCPAPELLGGPSVFLFPPKPKDTLMISRTVEVTCVVVDVSHEDPEVKFNWYVDGVEVHNAKTKPREEQYNSTYRVVSVLAVLHQDWLNGKEYKCKVSNKALPAPIEKTISKAKGQPREPQVYTLPPSRDELTKNQVSLTCLVKGFYPSDIAVEWESNGQPENNYKTTPPVLDSDGSFFLYSKLTVDKSRWQQGNVFSCSVEHEALHWHYTQKSLSLSP
light: not shown
notes: M428E as printed; may be a misprint of M428L; copies: 2 + 2
B11 came in with a Kd in assay [7] of 51 nM.

B12: IgG1-F292 (antibody)
heavy: QVQLQESGPGLVKPSETLSLTCAVSGHSISHDHAWSWVRQPPGEGLEWIGFISYSGITNYNPSLQGRVTISRDNSKNTLYLQMNSLRAEDTAVYYCARSLARTTAMDYWGEGTLVTVSSASTKGPSVFPLAPSSKSTSGGTAALGCLVKDYFPEPVTVSWNSGALTSGVHTFPAVLQSSGLYSLSSVVTVPSSSLGTQTYICNVNHKPSNTKVDKKVEPKSCDKTHTCPPCPAPELLGGPKVFLFPPKPKDTLYISRTPEVTCVVVDVSHEDPEVKFNWYVDGVEVHNAKTKPREEQYNSTYRVVSVLTPLHQDWLNGKEYKCKVSNKALPAPIEKTISKAKGQPREPQVYTLPPSRDELTKNQVSLTCLVKGFYPSDIAVEWASNGQPENNYKTTPPVLDSDGSFFLYSKLTVDKSRWQQGNVFSCSVIHEALHYHYTQKSLSLSP
light: not shown
notes: copies: 2 + 2
As to B12, the affinity in assay [8], expressed as Kd, was 20 nM.
